Test results reported in patent US10722558 (dated 2020).
Changes are numbered by the printed parent chain. Numbers in names are those of the source. Like-named read-outs stand apart in the source and are kept apart here.

Columns and labels:
[1] = molecular target: T1, GDF8 (human, UniProt O14793); assay: SPR
[2] = molecular target: T2, Activin A (human, UniProt P08476); assay: SPR
T2 chain: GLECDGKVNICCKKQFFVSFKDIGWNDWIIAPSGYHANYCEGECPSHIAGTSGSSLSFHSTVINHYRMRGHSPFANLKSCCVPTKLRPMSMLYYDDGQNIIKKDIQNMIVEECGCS

[3] = molecular target: T3, GDF11 (human, UniProt O95390); assay: SPR, very low signal
T3 chain: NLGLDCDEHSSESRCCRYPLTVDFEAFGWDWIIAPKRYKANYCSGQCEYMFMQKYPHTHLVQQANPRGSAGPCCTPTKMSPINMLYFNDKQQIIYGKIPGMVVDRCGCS

[4] = molecular target: T4, Activin B (human, UniProt P09529); assay: SPR
T4 chain: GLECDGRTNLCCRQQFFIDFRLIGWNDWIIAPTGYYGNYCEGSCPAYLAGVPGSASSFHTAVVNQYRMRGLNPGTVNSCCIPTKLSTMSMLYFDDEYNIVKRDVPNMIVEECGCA

[5] = molecular target: T3, GDF11; assay: SPR
[6] = molecular target: T2, Activin A; assay: SPR
[7] = molecular target: T2, Activin A; assay: SPR
[8] = molecular target: T3, GDF11; assay: SPR
[9] = molecular target: T5, BMP6 (human, UniProt P22004); assay: SPR
T5 chain: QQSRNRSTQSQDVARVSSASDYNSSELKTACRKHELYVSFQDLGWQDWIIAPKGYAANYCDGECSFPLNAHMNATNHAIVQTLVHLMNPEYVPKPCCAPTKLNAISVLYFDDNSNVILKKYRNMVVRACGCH

[10] = molecular target: T6, BMP10 (human, UniProt O95393); assay: SPR
T6 chain: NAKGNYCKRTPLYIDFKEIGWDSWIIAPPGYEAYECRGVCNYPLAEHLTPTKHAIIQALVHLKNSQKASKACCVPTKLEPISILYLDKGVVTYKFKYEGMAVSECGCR

[11] = molecular target: T7, GDF3 (human, UniProt Q9NR23); assay: SPR
T7 chain: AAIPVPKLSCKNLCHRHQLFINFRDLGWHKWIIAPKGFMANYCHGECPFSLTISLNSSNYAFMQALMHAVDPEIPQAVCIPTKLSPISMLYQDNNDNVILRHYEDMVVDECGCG

[12] = molecular target: T1, GDF8; assay: SPR; remark: listed apart in the source
[13] = molecular target: T3, GDF11; assay: SPR
[14] = molecular target: T2, Activin A; assay: SPR
[15] = molecular target: T4, Activin B; assay: SPR
[16] = molecular target: T8, BMP9 (human, UniProt Q9UK05); assay: SPR, transient
T8 chain: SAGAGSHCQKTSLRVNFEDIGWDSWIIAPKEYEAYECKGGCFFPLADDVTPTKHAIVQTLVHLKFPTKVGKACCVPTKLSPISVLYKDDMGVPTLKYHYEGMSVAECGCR

T1 sequence (O14793 267-375): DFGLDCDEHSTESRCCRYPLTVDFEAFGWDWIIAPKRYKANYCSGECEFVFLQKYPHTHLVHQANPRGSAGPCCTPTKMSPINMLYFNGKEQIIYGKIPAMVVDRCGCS

B1: ActRIIB(R64K 20-129)-hFc (protein)
chain: GRGEAETRECIYYNANWELERTNQSGLERCEGEQDKRLHCYASWKNSSGTIELVKKGCWLDDFNCYDRQECVATEENPQVYFCCCEGNFCNERFTHLPEAGGPEVTYEPP
B1 gave a Kd [1] of 2.15 nM and a Kd [2] of 0.0841 nM.

B2: ALK4-Fc homodimer (protein)
chain: SGPRGVQALLCACTSCLQANYTCETDGACMVSIFNLDGMEHHVRTCIPKVELVPAGKPFYCLSSEDLRNTHCCYTDYCNRIDLRVPSGHLKEPEHPSMWGPVE
In the case of B2, the Kd [3] is reported as 0.27 nM.

B3: ActRIIB(L79D 20-134)-hFc (protein)
chain: GRGEAETRECIYYNANWELERTNQSGLERCEGEQDKRLHCYASWRNSSGTIELVKKGCWDDDFNCYDRQECVATEENPQVYFCCCEGNFCNERFTHLPEAGGPEVTYEPPPTAPTGGGTHTCPPCPAPELLGGPSVFLFPPKPKDTLMISRTPEVTCVVVDVSHEDPEVKFNWYVDGVEVHNAKTKPREEQYNSTYRVVSVLTVLHQDWLNGKEYKCKVSNKALPVPIEKTISKAKGQPREPQVYTLPPSREEMTKNQVSLTCLVKGFYPSDIAVEWESNGQPENNYKTTPPVLDSDGSFFLYSKLTVDKSRWQQGNVFSCSVMHEALHNHYTQKSLSLSPGK
Work on B3 yielded a Kd [4] of 0.788 nM, a Kd [5] of 0.123 nM and a Kd [6] of 13.5 nM.

B4: ActRIIB(20-134)-hFc (protein)
chain: B3 chain with D60L
For B4, the Kd [4] was 0.012 nM, the Kd [5] was 0.036 nM and the Kd [6] was 0.016 nM.

B5: ActRIIB-Fc +15tail (protein)
chain: B3 chain with D60L
Binder B5 has a Kd [7] of about 26 nM.

B6: ActRIIB-Fc K55A (protein)
chain: B3 chain with K55A, D60L
B6: no binding [8].

B7: ALK4-Fc:ActRIIB-Fc heterodimer (protein)
chain 1: SGPRGVQALLCACTSCLQANYTCETDGACMVSIFNLDGMEHHVRTCIPKVELVPAGKPFYCLSSEDLRNTHCCYTDYCNRIDLRVPSGHLKEPEHPSMWGPVETGGGTHTCPPCPAPELLGGPSVFLFPPKPKDTLMISRTPEVTCVVVDVSHEDPEVKFNWYVDGVEVHNAKTKPREEQYNSTYRVVSVLTVLHQDWLNGKEYKCKVSNKALPAPIEKTISKAKGQPREPQVYTLPPSREEMTKNQVSLTCLVKGFYPSDIAVEWESNGQPENNYDTTPPVLDSDGSFFLYSDLTVDKSRWQQGNVFSCSVMHEALHNHYTQKSLSLSPG
chain 2: B3 chain with D60L, V226A, E252K, D295K
B7 was tested, and the Kd [9] was 2.7 nM, the Kd [10] was 0.074 nM and the Kd [11] was 4.9 nM. The Kd [12] was 0.55 nM, the Kd [13] was 0.003 nM and the Kd [14] was 0.012 nM. For the same binder, the Kd [15] was 0.006 nM and the Kd [16] was 3.4 nM.
